Results published in publication PMC10646254.

Key:
[1] = molecular target: SP3 (UniProt Q02447); assay: co-immunoprecipitation, western blot; conditions: reference: wild type; sites T361,T366,S381,S387
[2] = molecular target: SP1 (UniProt P08047); assay: co-immunoprecipitation, western blot; conditions: reference: wild type; sites T361,T366,S381,S387

## ELK4 (from UniProt P28324) 4MA (T361/T366/S381/S387A)
[1]
  binding against the reference: weaker
[2]
  binding against the reference: weaker
